# Laboratory results taken from PMC11039692, “SRY-Box transcription factor 9 triggers YAP nuclear entry via direct interaction in tumors” (Signal Transduction and Targeted Therapy, 2024).
# B1: SOX9: recombinant GST-SOX9 protein (Abcam, ab131911) (protein)
# chain: MNLLDPFMKMTDEQEKGLSGAPSPTMSEDSAGSPCPSGSGSDTENTRPQENTFPKGEPDLKKESEEDKFPVCIREAVSQVLKGYDWTLVPMPVRVNGSSKNKPHVKRPMNAFMVWAQAARRKLADQYPHLHNAELSKTLGKLWRLLNESEKRPFVEEAERLRVQHKKDHPDYKYQPRRRKSVKNGQAEAEEATEQTHISPNAIFKALQADSPHSSSGMSEVHSPGEHSGQSQGPPTPPTTPKTDVQPGKADLKREGRPLPEGGRQPPIDFRDVDIGELSSDVISNIETFDVNEFDQYLPPNGHPGVPATHGQVTYTGSYGISSTAATPASAGHVWMSKQQAPPPPPQQPPQAPPAPQAPPQPQAAPPQQPAAPPQQPQAHTLTTLSSEPGQSQRTHIKTEQLSPSHYSEQQQHSPQQIAYSPFNLPHYSPSYPPITRSQYDYTDHQNSSSYYSHAAGQGTGLYSTFTYMNPAQRPMYTPIADTSGVPSIPQTHSPQHWEQPVYTQLTRP
# Test system: FLAG-YAP
# Test: In vitro protein pull-down assay
# Type: binding
# Conditions: recombinant GST-SOX9 20 μM and FLAG-YAP 20 μM, FLAG beads, overnight at 4 °C
# Method: FLAG-YAP protein (20 μM) purified from SF9 was incubated with 20 μM GST-SOX9 protein (Abcam, ab131911), GST protein, or blank control in the presence of FLAG beads (Sigma-Aldrich, A2220) overnight at 4 °C. Following this, the beads were washed two times in binding and wash buffer (20 mM Tris [pH 8.0], 150 mM NaCl, 0.5% NP40, 0.5% TritonX-100, 1 mM DTT, and 10% glycerol), and one wash with high salt buffer (20 mM Tris [pH 8.0], 250 mM NaCl, 0.5% NP40, 0.5% TritonX-100, 1 mM DTT, and 10% glycerol). The slurry was boiled with SDS buffer and then subjected to immunoblot.
molecule,measurement,value
B1,direct interaction with YAP (pull-down),demonstrated the direct interaction between SOX9 and YAP
